Measured values from the supplement of paper PMC9112550, “Optimization of the antimicrobial peptide Bac7 by deep mutational scanning” (BMC Biology, 2022).

System: Escherichia coli TOP10
Assay: shrunken log2 fold change of peptide-encoding DNA abundance (4.5 h post-induction vs induction); higher = less antimicrobial activity (less host growth inhibition)
Details: time post-induction: 4.5 h; library: site-saturation at positions 5, 18, 19, 20
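Further: peptides expressed intracellularly from a pBAD plasmid library in pooled LB shake-flask culture, induced with 0.3% L-arabinose, DNA abundance read by NGS, three biological replicates, DESeq2 with apeglm shrinkage.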

Sequence | shrunken log2 fold change
RRIRHRPPRLPRPRPRPGFSPRP | -0.236
RRIRDRPPRLPRPRPRPFKLPRP | 0.0184
RRIRARPPRLPRPRPRPNAIPRP | 0.201
RRIRERPPRLPRPRPRPFHRPRP | -0.182
RRIRIRPPRLPRPRPRPIMQPRP | -0.557
RRIRWRPPRLPRPRPRPYTYPRP | -0.329
RRIRRRPPRLPRPRPRPYYMPRP | -0.408
RRIRQRPPRLPRPRPRPQSRPRP | 0.00465
RRIRRRPPRLPRPRPRPFQAPRP | 0.376
RRIRPRPPRLPRPRPRPCTTPRP | -0.732
RRIRLRPPRLPRPRPRPAYKPRP | -0.00989
RRIRLRPPRLPRPRPRPGEIPRP | -0.141
RRIRKRPPRLPRPRPRPDWKPRP | -0.0149
RRIRRRPPRLPRPRPRPGFMPRP | 0.252
RRIRHRPPRLPRPRPRPAGCPRP | 0.242
RRIRVRPPRLPRPRPRPFAEPRP | 0.171
RRIRLRPPRLPRPRPRPSATPRP | 0.321
RRIRKRPPRLPRPRPRPDWRPRP | 0.499
RRIRPRPPRLPRPRPRPRPCPRP | 0.188
RRIRFRPPRLPRPRPRPYQIPRP | -0.471
RRIRCRPPRLPRPRPRPAGRPRP | 0.373
RRIRWRPPRLPRPRPRPLDWPRP | 0.355
RRIRLRPPRLPRPRPRPWCFPRP | -0.158
RRIRQRPPRLPRPRPRPGNAPRP | 0.322
RRIRHRPPRLPRPRPRPSMQPRP | -0.124

Sequence | shrunken log2 fold change
RRIRMRPPRLPRPRPRPQDYPRP | -0.0945
RRIRSRPPRLPRPRPRPQVDPRP | -0.296
RRIRIRPPRLPRPRPRPSITPRP | 0.141
RRIRPRPPRLPRPRPRPFKMPRP | -0.384
RRIRCRPPRLPRPRPRPQLCPRP | 0.192
RRIRYRPPRLPRPRPRPDYSPRP | -0.245
RRIRHRPPRLPRPRPRPMWCPRP | -0.187
RRIRWRPPRLPRPRPRPCARPRP | 0.0277
RRIRPRPPRLPRPRPRPSNEPRP | -0.406
RRIRMRPPRLPRPRPRPVTGPRP | -0.00102
RRIRKRPPRLPRPRPRPPELPRP | 0.23
RRIRYRPPRLPRPRPRPGHVPRP | -0.59
RRIRPRPPRLPRPRPRPTNKPRP | -0.208
RRIRMRPPRLPRPRPRPPPEPRP | 1.82
RRIRIRPPRLPRPRPRPQGDPRP | 0.0169
RRIRARPPRLPRPRPRPRMPPRP | 0.251
RRIRIRPPRLPRPRPRPQYDPRP | -0.043
RRIRARPPRLPRPRPRPAQRPRP | 0.695
RRIRYRPPRLPRPRPRPPCMPRP | -0.315
RRIRGRPPRLPRPRPRPILRPRP | 0.161
RRIRYRPPRLPRPRPRPFMDPRP | -0.2
RRIRWRPPRLPRPRPRPAPKPRP | 0.992
RRIRSRPPRLPRPRPRPNDVPRP | -0.134
RRIRLRPPRLPRPRPRPWHGPRP | -0.109
RRIRMRPPRLPRPRPRPMRLPRP | 0.416

Sequence | shrunken log2 fold change
RRIRVRPPRLPRPRPRPFFPPRP | -0.0751
RRIRCRPPRLPRPRPRPDAKPRP | 0.0864
RRIRERPPRLPRPRPRPQMVPRP | -0.0708
RRIRRRPPRLPRPRPRPVKGPRP | -0.0795
RRIRHRPPRLPRPRPRPPENPRP | 0.116
RRIRNRPPRLPRPRPRPKQYPRP | -0.426
RRIRVRPPRLPRPRPRPQLHPRP | -0.147
RRIRMRPPRLPRPRPRPRGEPRP | 0.0602
RRIRQRPPRLPRPRPRPHYQPRP | -0.0204
RRIRWRPPRLPRPRPRPLSHPRP | 0.000856
RRIRIRPPRLPRPRPRPDKDPRP | -0.0993
RRIRHRPPRLPRPRPRPWIFPRP | -0.332
RRIRMRPPRLPRPRPRPVYEPRP | 0.352
RRIRDRPPRLPRPRPRPDYMPRP | 0.0916
RRIRKRPPRLPRPRPRPFGCPRP | 0.0495
RRIRTRPPRLPRPRPRPQKAPRP | 0.00748
RRIRVRPPRLPRPRPRPLDLPRP | -0.0307
RRIRVRPPRLPRPRPRPAWYPRP | 0.0171
RRIRMRPPRLPRPRPRPEPIPRP | 0.0584
RRIRHRPPRLPRPRPRPPIRPRP | 0.309
RRIRARPPRLPRPRPRPYLVPRP | 0.0333
RRIRFRPPRLPRPRPRPHWKPRP | -0.162
RRIRARPPRLPRPRPRPRVNPRP | 0.631
RRIRARPPRLPRPRPRPPQCPRP | 0.585
RRIRVRPPRLPRPRPRPTGQPRP | 0.526
